The text below walks through data of patent publication US20260077028A1.

In experiment [1] the target is DEspR on activated neutrophils (species of the neutrophils not stated for FIG. 6 / FIG. 17C). Kind of experiment: cell-based or functional assay.
Experiment [2] concerns the target T1, human DEspR (dual endothelin/VEGF signal peptide receptor) (human) (UniProt B0L3A2).
T1 sequence: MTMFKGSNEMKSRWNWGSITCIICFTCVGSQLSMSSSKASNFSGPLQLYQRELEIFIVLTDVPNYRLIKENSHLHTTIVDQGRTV
Kind of experiment: binding to DEspR on intact human cells, triplicate.

Where “and” joins values, the source holds several entries; their conditions need not be identical. Equal values may be shown once.

B1: 6g8 mumab, murine anti-DEspR monoclonal antibody (pan-species reactive anti-Human/Rat/Monkey DEspR mAb), precursor of hu-6g8 (antibody, from a related filing, V domains shown)
VH: EVQLQESGGGLVQPGGSLKLSCAASGFDFSRYWMSWVRQAPGKGLEWIGEINPDSSTINYTPSLKDKFIISRDTAKKTLYLQMSKVRSEDTALYYCARHGRGMDYWSQGTSVTVSS
VL: DIVLTQTNQIMSASVGDRVSVTCKASQNVDSNVAWYQQKPGHSPKALIYSASYRYSRVPDRITGSGSGTDFTLTITNVQSKDLADYFCQQYHSYPLLAFGAGTKLELKR
As to B1, in experiment [1], the inhibition of neutrophil (PMN) survival (IC50) was more than 198 nM; the inhibition of survival (IC50), live cells counted by Trypan blue dye exclusion was > 200 nM and > 30 µg/mL. Besides, the EC50 (in general, the concentration giving half of the maximal effect) in experiment [2] was found to be 178 nM.
